In US20120149881A1 (Genentech, published 2012):
Residue numbers refer to the chain shown, from its start. Values belong to the binder of their own block, whether it stands above or below them.

Legend:
[1] = target: T1, human IgE with the M1′ sequence (long form of membrane IgE) expressed on transduced BJAB or Daudi cells (human, UniProt P01854 116-546); assay: number printed in the titration panel; FIG. 3M calls these numbers 'Scatchard Results' (BJAB-Long cells)
T1 construct: Full-length heavy and light chains of the U266 IgE B cell receptor, retrovirally expressed; also called IgE/M1′; IgE-M1′
T1 sequence (P01854 116-546 I515L limits assumed): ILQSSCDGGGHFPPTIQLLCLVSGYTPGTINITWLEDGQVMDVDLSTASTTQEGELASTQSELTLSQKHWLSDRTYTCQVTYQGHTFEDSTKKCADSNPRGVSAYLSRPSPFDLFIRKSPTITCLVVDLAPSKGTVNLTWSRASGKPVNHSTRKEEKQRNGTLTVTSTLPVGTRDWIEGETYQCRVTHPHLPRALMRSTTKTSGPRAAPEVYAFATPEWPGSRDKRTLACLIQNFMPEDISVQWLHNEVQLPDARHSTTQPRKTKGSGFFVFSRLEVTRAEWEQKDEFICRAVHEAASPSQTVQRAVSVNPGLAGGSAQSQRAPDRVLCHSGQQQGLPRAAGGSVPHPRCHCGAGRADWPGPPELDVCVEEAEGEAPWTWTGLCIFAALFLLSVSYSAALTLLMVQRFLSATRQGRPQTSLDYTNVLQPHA
Method: In addition to relative affinity determinations by antibody titration and FACs detection, we also determined affinities of selected anti-MP antibodies to BJAB cell lines expressing IgE long form using Scatchard analysis. BJAB-Long cells were prepared for binding in cold Binding buffer composed of base media, with 10 mM HEPES pH 7.4, and 2% FBS as well as 40 μg/ml human IgG. Cells were diluted to a concentration of 1.7×10⁶ cells/ml, and kept on ice until added to the assay. The antibodies were iodinated with Iodogen method. Various concentrations of unlabelled antibody were prepared in triplicate, using a 1:2 dilution starting with the saturation concentration and ending at a concentration of zero, with a total of 14 concentrations. Iodinated antibody of a single concentration was added to all dilutions of the competitor unlabelled antibody. Lastly 250,000 BJAB-Long cells were added to each mixture of iodinated and unlabelled antibody. The samples were incubated at 4° C. for 4 hours, shaking. Each sample was then collected and filtered on a membrane, washed at least 3 times with binding buffer, allowed to dry and then measured for 1 minute using a Perkin Elmer Wizard 1470 Auto Gamma Counter.

[2] = target: T1, human IgE with the M1′ sequence (long …); assay: competitive ECL binding on BJAB-IgE/M1′ cells vs biotinylated 26A11 or 47H4, 2nd IC50 column
[3] = target: T2, human IgE CH3-CH4-M1′/Fc fusion protein (human); assay: SPR Biacore 2000, M1′-Fc immobilized
T2 construct: also called M1′ (immobilized)
T2 sequence (chain, as listed by the source limits assumed): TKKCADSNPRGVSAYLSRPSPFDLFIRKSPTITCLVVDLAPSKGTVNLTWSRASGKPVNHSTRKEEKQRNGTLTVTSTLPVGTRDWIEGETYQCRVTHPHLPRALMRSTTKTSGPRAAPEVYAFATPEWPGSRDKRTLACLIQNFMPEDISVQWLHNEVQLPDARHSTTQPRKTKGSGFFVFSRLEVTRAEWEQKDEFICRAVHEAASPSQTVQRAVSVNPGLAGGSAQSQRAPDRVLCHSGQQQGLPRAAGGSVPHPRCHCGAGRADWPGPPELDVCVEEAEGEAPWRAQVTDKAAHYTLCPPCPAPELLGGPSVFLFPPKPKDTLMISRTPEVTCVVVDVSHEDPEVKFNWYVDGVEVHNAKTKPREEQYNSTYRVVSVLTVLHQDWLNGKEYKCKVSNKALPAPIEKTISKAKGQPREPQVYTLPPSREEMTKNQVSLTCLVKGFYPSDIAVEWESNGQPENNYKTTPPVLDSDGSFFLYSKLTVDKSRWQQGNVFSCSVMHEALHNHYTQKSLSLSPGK

[4] = target: T1, human IgE with the M1′ sequence (long …); assay: competitive ECL binding on BJAB-IgE/M1′ cells vs biotinylated 26A11 or 47H4, 1st IC50 column
[5] = target: T2, human IgE CH3-CH4-M1′/Fc fusion protein; assay: SPR Biacore 2000, IgG immobilized, M1′-Fc analyte
[6] = target: T2, human IgE CH3-CH4-M1′/Fc fusion protein; assay: SPR Biacore A100, M1′ immobilized
[7] = target: T1, human IgE with the M1′ sequence (long …); assay: Scatchard analysis on cells expressing human IgE/M1′
Method: The BJAB or Daudi cells expressing various forms of IgE with or without M1′ (Human, Rhesus, Cyno) were prepared for binding in cold Binding buffer composed of base media, with 10 mM HEPES pH 7.4, and 2% FBS as well as 40 ug/ml human IgG. Cells are diluted to concentration of 1.7×10⁶ cells/ml, and kept on ice until they are added to the assay. The proteins/antibodies are iodinated with the Iodogen method. Various concentrations of cold protein are prepared in triplicate, using a 1:2 dilution starting with the saturation concentration and ending at a concentration of zero, with a total of 14 concentrations. Hot protein of a single concentration is added to all dilutions compete with the cold protein. Lastly the cells are added to the hot and cold protein mixture, 250,000 cells per sample were used. Assay is kept at 4° C. for 4 hours, shaking. Each sample is then collected and filtered on membrane, washed at least 3 times with binding buffer, allowed to dry and then counted for 1 minute using Perkin Elmer Wizard 1470 Auto Gamma Counter.

- Kd [1]: 16.8 nM
B1: murine anti-IgE/M1′ antibody 45C1 (antibody, V domains shown)
VH: QIQLVQSGPELKKPGETVKISCKASGYTFTNYGMNWVKQAPGKGLKWMGWINTYTGEPTYVDDFKGRFAFSLETSASTAYLQINNLKNEDMATYFCARGIYYDNDDIYWGQGTILTVSS
VL: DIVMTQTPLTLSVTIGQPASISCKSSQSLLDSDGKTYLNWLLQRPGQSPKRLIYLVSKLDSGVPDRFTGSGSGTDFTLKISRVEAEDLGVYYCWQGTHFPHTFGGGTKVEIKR
notes: murine hybridoma antibody; also called 45C1.6.14

- IC50 [2]: 27 nM
- Kd [3]: 8.8 nM
B5: humanized anti-IgE/M1′ antibody 26A11.v16 (antibody, V domains shown)
VH: EVQLVESGGGLVQPGGSLRLSCAASGYTFTDYYIMWVRQAPGKGLEWVGDINPNNYDTSYNQKFKGRFTISADTSKNTAYLQMNSLRAEDTAVYYCASKAYWGQGTLVTVSS
VL: DIQMTQSPSSLSASVGDRVTITCRSSQDISQSLNWYQQKPGKAPKLLIYSTSRLHSGVPSRFSGSGSGTDFTLTISSLQPEDFATYYCQQGHTLPWTFGQGTKVEIKR
notes: produced as IgG

- Kd [1]: 2.7 nM
B11: murine anti-IgE/M1′ antibody 1C11 (antibody, V domains shown)
VH: QVQLQQSGAELVRPGASVTLSCKASGYTFTDFEMHWVKQTPVHGLEWIGAIAPETGTSAYNQKFRGKATLTADISSSTAYMDLRSLTSEDSAVYYCTIYYAAPWFAYWGQGTLVTVSS
VL: DIVMSQSPSSLAVSVGEKVTMSCKSSQSLLYSSNQKNYLAWYQQKPGQSPKLLIYWASTRESGVPDRFTGSGSVTDFPLTISSVKAEDLAVYYCQQYYSYPYTFGGGTKVEIKR
notes: murine hybridoma antibody; also called 1C11.10.20

- IC50 [2]: 18 nM
- IC50 [4]: 12 nM
- Kd [5]: 3.1 nM
- Kd [6]: 7.8 nM
- Kd [7]: 0.37 nM
B12: humanized anti-IgE/M1′ antibody 47H4.v1 (antibody, V domains shown)
VH: EVQLVESGGGLVQPGGSLRLSCAASGFTFSDYGMAWVRQAPGKGLEWVAFISDLAYTIYYADTVTGRFTISRDNSKNTLYLQMNSLRAEDTAVYYCARDNWDAMDYWGQGTLVTVSS
VL: DIQMTQSPSSLSASVGDRVTITCRSSQSLVHNNGNTYLHWYQQKPGKAPKLLIYKVSNRFSGVPSRFSGSGSGTDFTLTISSLQPEDFATYYCSQNTLVPWTFGQGTKVEIKR
notes: direct CDR graft, produced as IgG

- IC50 [4]: ~7600 nM
- Kd [6]: 69 nM
B13: humanized anti-IgE/M1′ antibody 47H4.v3 (antibody, V domains shown)
VH: B12 VH with M34I, M104L
VL: B12 VL
notes: produced as IgG

- IC50 [4]: 38 nM
- Kd [5]: 2.8 nM
- Kd [6]: 7.4 nM
- Kd [7]: 0.54 nM
B14: humanized anti-IgE/M1′ antibody 47H4.v2 (antibody, V domains shown)
VH: B12 VH
VL: B12 VL with G34A
notes: produced as IgG

- Kd [6]: 56 nM
B15: humanized anti-IgE/M1′ antibody 47H4.v4 (antibody, V domains shown)
VH: B12 VH with M34I, M104L
VL: B12 VL with G34A
notes: produced as IgG

More lines, now with the values behind:

B2: humanized anti-IgE/M1′ antibody 26A11.v1 (antibody, V domains shown)
VH: B5 VH with I34M
VL: B5 VL with Q31N
notes: direct CDR graft, produced as IgG in 293 cells
- IC50 [2]: 19 nM
- Kd [3]: 1.7 nM
- IC50 [4]: 15 nM
- Kd [5]: 9 nM
- Kd [6]: 0.2 nM
- Kd [7]: 1.06 nM

B3: humanized anti-IgE/M1′ antibody 26A11.v2 (antibody, V domains shown)
VH: B5 VH with I34M
VL: B5 VL with Q31N, S32A
notes: produced as IgG
- IC50 [4]: 18 nM
- Kd [6]: 0.3 nM

B4: humanized anti-IgE/M1′ antibody 26A11.v13 (antibody, V domains shown)
VH: B5 VH with I34M
VL: B5 VL with Q31S
notes: produced as IgG
- IC50 [2]: 19 nM
- Kd [3]: 4 nM

B6: humanized anti-IgE/M1′ antibody 26A11.v15 (antibody, V domains shown)
VH: B5 VH
VL: B5 VL with Q31S
notes: produced as IgG
- IC50 [2]: 32 nM
- Kd [3]: 8.4 nM

B7: humanized anti-IgE/M1′ antibody 26A11.v5 (antibody, V domains shown)
VH: B5 VH
VL: B5 VL with Q31N, S32A
notes: produced as IgG
- IC50 [2]: 35 nM
- IC50 [4]: 25 nM

B8: humanized anti-IgE/M1′ antibody 26A11.v3 (antibody, V domains shown)
VH: B5 VH with I34M
VL: B5 VL with Q31N, S32Y
notes: produced as IgG
- IC50 [2]: 22 nM
- Kd [3]: 2.8 nM
- IC50 [4]: 10 nM
- Kd [6]: < 0.05 nM

B9: humanized anti-IgE/M1′ antibody 26A11.v14 (antibody, V domains shown)
VH: B5 VH with I34M
VL: B5 VL
notes: produced as IgG
- IC50 [2]: 19 nM
- Kd [3]: 3.9 nM
- Kd [7]: 1.5 nM

B10: humanized anti-IgE/M1′ antibody 26A11.v4 (antibody, V domains shown)
VH: B5 VH
VL: B5 VL with Q31N
notes: produced as IgG
- IC50 [2]: 29 nM
- IC50 [4]: 20 nM
- Kd [6]: 0.9 nM
